Measurements as given in patent US20250368734A1 (ANTENGENE BIOLOGICS, published 2025).
Residue numbers refer to the chain shown, from its start.

T1: mouse GPRC5D (mouse, UniProt Q9JIL6 1-344)
T1 construct: whole, on cells; HEK293T-mGPRC5D cells; also called mGPRC5D; murine GPRC5D
T1 sequence (looked up): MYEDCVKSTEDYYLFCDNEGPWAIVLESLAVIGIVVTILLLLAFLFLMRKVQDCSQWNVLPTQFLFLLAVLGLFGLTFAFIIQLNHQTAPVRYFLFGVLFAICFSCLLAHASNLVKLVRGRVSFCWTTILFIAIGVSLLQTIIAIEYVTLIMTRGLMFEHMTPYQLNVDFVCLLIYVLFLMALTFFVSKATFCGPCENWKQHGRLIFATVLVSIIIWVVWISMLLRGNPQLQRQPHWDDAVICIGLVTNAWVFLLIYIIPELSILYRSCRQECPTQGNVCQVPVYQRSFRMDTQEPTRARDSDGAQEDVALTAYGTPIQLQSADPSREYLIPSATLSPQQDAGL

B1: 83A9B8 (antibody, V domains shown)
VH: EVQLQQSGPELVKPGASVKMSCKASGYTFSNYVIHWVKQKPGQGLEWIGYFNPYNDGSKYNEKFKGKATLTSDKSSSTAYMELSSLTSEDSAVYYCARGGVRRYFDVWGAGTTVTVSS
VL: DIQMTQSPSSLSASLGERVSLTCRASQDIGDNLNWLQQEPDGTIKRLIYATFSLDSGVPKRFSGSRSGSVYSLTISRLESEDFVDYFCLHYASFPYTFGGGTKLEIK
notes: Mouse monoclonal antibody from hybridoma subclone
B2: 116F1G6 (antibody, V domains shown)
VH: B1 VH with Q6H, S30T, N31T, I34M, F51I, S58T
VL: B1 VL with D31S, D41N, S53T, V70D, R77S, F87Y, H90Q
notes: as for B1
B3: 116G1G4 (antibody, V domains shown)
VH: EVQLQQSGPELVKPGASVKMSCKASGYTFTYYIMHWVKQEPGQGLQWIGYINPYNDGAYYSARFKGKATLTSDKSSSTAYMDLTSLTSEDSAVYYCARGGVRRYFDVWGAGTTVTVSS
VL: DIQMTQSPSSLSASLGERVILTCRASQDIGSNLIWLQQKPDGTIKRLIYATFNLDSGVSKRFSGSRSGSDYSLTISSLDSEDFVDYYCLQYASSPYTFGGGTKLEIK
notes: as for B1
B4: 119E4B4 (antibody, V domains shown)
VH: EVQLQQSGAELVKPGASVKLSCTASGFNIKDTYMHWVKQRPEQGLEWIGRIDPANGNTKYDPKFQGKATITADTSSNTAYLQLSSLTSEDTAVYYCARDYGNYEDYAMDYWGQGTSVTVSS
VL: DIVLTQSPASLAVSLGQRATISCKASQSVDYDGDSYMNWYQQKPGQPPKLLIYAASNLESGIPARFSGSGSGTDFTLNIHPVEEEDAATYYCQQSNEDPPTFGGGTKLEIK
notes: as for B1
B5: ch116F1G6 (antibody, V domains shown)
VH: B1 VH with Q6H, S30T, N31T, I34M, F51I, S58T
VL: B1 VL with D31S, D41N, S53T, V70D, R77S, F87Y, H90Q
B6: ch83A9B8 (antibody, V domains shown)
VH: B1 VH
VL: B1 VL
B7: ch98A3A8 (antibody, V domains shown)
VH: B1 VH with S30T, N31Y, I34T, K38R, F51I, S58T, K59M, Y60F, L83F, Y94F
VL: B3 VL with I20S, I34N, F52S, N53S, S59P, S76N, D79E, S94F
B8: ch96C9E7 (antibody, V domains shown)
VH: B1 VH with S30T, N31Y, V33I, I34L, S58N, Y60F, K63R, K65R, S84N, Y95F
VL: B1 VL with D31S, Y49S, V70D, R77S, D85N, F87Y, H90Q
B9: ch28H9C12 (antibody, V domains shown)
VH: EVQLVESGGGLVKPGGSLKLSCAASGFTFSDYGMHWVRQAPEKGLEWVAYISSGSSTIYYADTVKGRFTISRDNAKNTLFLQMTSLRSEDTAIYYCVRRPWYFDVWGTGTTVTVSS
VL: DVLMTQTPLSLPVSLGDQASISCRSSQSIVHSNGNTYLQWYLQKPGQSPKLLIYKVSNRFSGVPDRFSGSGSGTDFTLKISRLEAEDLGVYYCFQGSHVPFTFGSGTKLEIK
B10: ch82A1C10 (antibody, V domains shown)
VH: QVQLKESGPGLVAPSQSLSITCTVSGFSLTNYAVTWVRQPPGKGLEWLGVIWGDGSTYYHSALVSRLSITKDNSRTQVLLKLNSLQTDDTARYYCAKGGYSPFAYWGQGTLVTVSA
VL: B9 VL with L3V, I29L, Q39H, Y54F, L83V, Y92F, F94S, G96N, S97T
B11: ch12G12C2 (antibody, V domains shown)
VH: QIQLVQSGPELKMPGETVKISCKASGYTFTTYGLSWVKQAPGKGLKWMGWINTFSGVPIYADDFKGRFAFSLETSASTAYLQINNLKNEDTATYFCARWGIRQRGDYWGQGATLTVSS
VL: QIVLTQSPAIMSASPGEKVTMTCSASSSVSYLHWYQQKSGTSPKRWIYDTSKLASGVPVRFSGSGSETSYSLTISSMEAEDAATYYCQQWTSNPPTFGGGTKLEIK
B12: ch26E2H6 (antibody, V domains shown)
VH: EVQLVESGGDLVKPGGSLKLSCAASGFTFSSYGMSWVRQTPDKRLEWVATISSGGSYTYYPDSVKGRFTISRDNAKNTLYLQMSSLKSEDTAMYYCARHATDYWGQGTTLTVSS
VL: B11 VL with L32M, V59A, E67G, T91S, P95L, G99A, I105L
B13: ch20C4E1 (antibody, V domains shown)
VH: EVRLVESGGALVRPGGSLKLSCAASGFTFSDYGMHWVRQAPEKGLEWIAFISSVSFTIYYADTVKGRFTISRDNAKNTLFLQMTSLRSEDTALYYCTRLGPHWYFDVWGTGTTVTVSS
VL: DVVLTQTPLSLPVSLGDQASISCRSSQSLVYSNGNTYLHWFLQKPGQSPQLLIYKVSNRFSGVPDRFSGSGSGTDFTLKISRVEAEDLGVYFCSQSTPVPTFGGGTKLEIK
B14: ch15D6G2 (antibody, V domains shown)
VH: EVQLVESGGDLVKPGGYLRLSCAASGFTFSSHGMSWVRQTPDKRLEWVATISSGGRNTYYPDSVKGRFTISRDNAKNILYLQMSSLKSEDTAMFYCTRHSGDAMDYWGQGTSVTVSS
VL: DILLTQSPAILSVSPGERVSFSCRASQSIGTNIHWYQQRTNGSPRLLIKYASESISGIPSRFSGSGSGTDFTLSINSVESEDIADYYCQQSKSWPTFGGGTKLEIK
B15: ch116G1G4 (antibody, V domains shown)
VH: B3 VH
VL: B3 VL
B16: ch36A3G8 (antibody, V domains shown)
VH: QVQLQQSGAELARPGASVKMSCKASGYTFTTYTMHWIKQRPGQDLEWIGFINPSSGYTKYNQNFKDKATLTADKSSTTAYMQLNSLTSEDSAVYYCASPYGNIYFDVWGTGTTVTVSS
VL: DIVMTQSQKFMSTAVGDRVSITCKASQNVGTAVAWYQQKPGQSPKLLIYSASNRYTGVPDRFTGSGSGTDFTLTISNMQSEDLADYFCQQYSSYPLTFGAGTKLELK

molecular target: T2, human GPRC5D (human, UniProt Q9NZD1 1-345); experiment: FACS, OPM-2 cells
T2 construct: whole, on cells; also called hGPRC5D; G-protein coupled receptor family C group 5 member D
Source text: (§1) The subcloning plates were screened by Mirrorball assay and the subclones with good binding ability were expanded to 24-wells for confirmation tests. The specificity and cross-reactivity of these subclones were confirmed with FACS analysis. Briefly, parental HEK293T, HEK293T cells stably over-expressing human GPRC5D protein (i.e., HEK293T-hGPRC5D), HEK293T cells stably over-expressing cynomolgus monkey GPRC5D protein (i.e., HEK293T-cynoGPRC5D), HEK293T cells stably over-expressing mouse GPRC5D protein (i.e., HEK293T-mGPRC5D), and OPM2 cells were incubated with antibodies produced by each subclone, respectively. Fluorescent dye-conjugated secondary antibody was used to detect the binding of the primary antibody with the cells. Median fluorescence intensity (MFI) was measured by FACS analysis,
(§2) As a result, 21 antibodies were discovered with unique sequences showing positive binding with HEK293T-hGPRC5D and OPM2 cells. Among which, some clones could also bind with HEK293T-cynoGPRC5D and/or HEK293T-mGPRC5D. […] ATG596 was a positive human IgG1 control antibody which comprises a VH region having an amino acid sequence as set forth in SEQ ID NO: 199, and a VL region having an amino acid sequence as set forth in SEQ ID NO: 200.

T2 sequence (Q9NZD1 whole entry): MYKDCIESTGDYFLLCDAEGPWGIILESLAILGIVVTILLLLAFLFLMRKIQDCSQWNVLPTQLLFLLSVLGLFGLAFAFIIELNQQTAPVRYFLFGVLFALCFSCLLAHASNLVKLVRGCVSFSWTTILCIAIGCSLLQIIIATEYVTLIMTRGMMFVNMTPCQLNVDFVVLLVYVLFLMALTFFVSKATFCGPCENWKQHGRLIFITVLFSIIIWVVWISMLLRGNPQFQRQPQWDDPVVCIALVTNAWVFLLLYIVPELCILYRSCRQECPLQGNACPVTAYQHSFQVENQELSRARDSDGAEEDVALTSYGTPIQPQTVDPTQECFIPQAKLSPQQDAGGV

| % Positive [%] | MFI | Binder |
| --- | --- | --- |
| 98.3 | 824 | B1 |
| 98.4 | 1040 | B2 |
| 97.4 | 706 | B3 |
| 98.6 | 867 | B4 |

molecular target: T2, human GPRC5D; experiment: FACS, CHOS-hGPRC5D cells

| EC50 [nM] | Top | Binder |
| --- | --- | --- |
| 0.863 | 1170 | B5 |
| 0.4 | 1840 | B6 |
| 1.39 | 2970 | B7 |
| 1.97 | 2830 | B8 |
| 2.83 | 3960 | B9 |
| 2.76 | 2680 | B10 |
| 4.06 | 3120 | B11 |
| 3.02 | 2910 | B12 |
| 2.83 | 4110 | B13 |
| 1.27 | 4080 | B14 |
| 0.686 | 2240 | B15 |
| 2.64 | 2780 | B16 |

molecular target: T2, human GPRC5D; experiment: FACS, HEK293T-hGPRC5D cells
Source text: as §1, §2

| % Positive [%] | MFI | Binder |
| --- | --- | --- |
| 94.1 | 4930 | B1 |
| 96.2 | 42800 | B2 |
| 94.4 | 6050 | B3 |
| 88.2 | 3240 | B4 |

molecular target: T1, mouse GPRC5D; experiment: FACS, HEK293T-mGPRC5D cells

| EC50 [nM] | Top | Binder |
| --- | --- | --- |
| 69.6 | 26000 | B7 |
| 18.5 | 19200 | B8 |
| 110 | 26500 | B9 |
| 995 | 1.48e+06 | B11 |
| 184 | 45700 | B12 |
| 3940 | 5.06e+06 | B13 |
| 592 | 648000 | B14 |

molecular target: T3, cynomolgus monkey GPRC5D (cynomolgus monkey); experiment: FACS, HEK293T-cynoGPRC5D cells
T3 construct: whole, on cells; HEK293T-cynoGPRC5D cells; also called cynoGPRC5D
Source text: as §1, §2

| % Positive [%] | MFI | Binder |
| --- | --- | --- |
| 55.7 | 278 | B1 |
| 41.4 | 82.6 | B2 |
| 59.8 | 344 | B3 |
| 69.6 | 709 | B4 |

molecular target: T3, cynomolgus monkey GPRC5D; experiment: FACS, HEK293T-cynoGPRC5D cells; remark: another data set of the same source

| EC50 [nM] | Top | Binder |
| --- | --- | --- |
| 9.78 | 46800 | B7 |
| 8.25 | 34300 | B8 |
| 14.8 | 65900 | B9 |
| 5.94 | 28200 | B11 |
| 40.4 | 51300 | B12 |
| 11.5 | 45800 | B13 |
| 19.3 | 123000 | B14 |
